The text below walks through data of patent US20220195015A1 (published 2022).

Residue numbers refer to the chain shown, from its start.

First the molecules themselves.
B1: C525 (antibody, V domains shown)
VH: EVQLVESGGRLVQPGRSLRLSCAASGFTFDDYAIHWVRQAPGKGLEWVSGISWNSGSIGYADSVRGRFTISRDNAKNSLYLQMNSLRAEDTALYYCAKGLDSSSSASPDYWGQGTLVTVSS
VL: DIQMTQSPSSVSASVGDRVTITCRASQDISSWLAWYQQKPGKAPKLLIYLASSLQSGVPSRFSGSGSGTDFILTISSLQPEDFGTYYCQQGNSFPLTFGGGTKVEIK
B2: C528 (antibody, V domains shown)
VH: EVQLVESGGGLVQPGGSLRLSCAASGFTFRNYDMHWVRQVAGKGLEWVSAIGTSGDTYYPDSVKGRFTISRENAKNSVYLQMNNLRAGDTAVYFCVRDREISGWTGWYFDLWGRGTLVTVSS
VL: DIQMTQSPSSLSASVGDRVTITCRASQTIHNYLNWYQQIPGKAPRLLIYATNTLQSGVPSRFSGSGSGTDFTLTITGLQPEDFATYYCQQSYSTPPITFGQGTRLEIK
B3: C527 (antibody, V domains shown)
VH: QVQLVESGGGVVQPGRSLRLSCAASGFTFSSYGMHWVRQAPGKGLEWVALIGYDGTDKYYAENVKGRFTISRDNSKNTLFLQMNSLRGGDTAVYLCARDGIPFRYGMDVWGQGTTVTVSS
VL: DIQMTQSPSTLSASVGDRVTITCRASQSIDIWLAWYQQKPGKAPKFLIHKASTLESGVPSRFSGSGSGTEFTLTISSLQPDDFATYYCQHYHSYSGTFGQGTKVEIK
B4: C526 (antibody, V domains shown)
VH: QVQLVQSGAEVKKPGASVKVSCKASGHTFTTYYLHWVRQAPGQGLEWMGRIDPSGGSTTYAQKFQGRVTMTRDTSTSTVYMELSSLRSEDTALYYCARGGYCGSTSCSPDDYFDYWGQGTLVTVSS
VL: SYELTQPPSVSVAPGKTARITCGGNNIGSKSVHWYQQKPGQAPVLVIYYDSDRPSGIPERFSGSNSGNTATLTISRVEAGDEADYYCQVWDSSSDHYYVFGTGTKVTVL
B5: C536 (antibody, V domains shown)
VH: QVQLVESGGGLVKPGRSLRLSCTVSGFTFGAYAMSWFRQAPGKGLEWVGFIRSKTYGGTTEYAASLKGRFTISRDDSKSIAFLQMNSLKTEDTAVYFCSRGGYYDGSPYYWNRPDAFDIWGLGTMVTVS
VL: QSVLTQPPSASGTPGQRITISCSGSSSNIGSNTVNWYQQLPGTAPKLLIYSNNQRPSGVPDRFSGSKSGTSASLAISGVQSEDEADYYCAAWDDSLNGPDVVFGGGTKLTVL
B6: C555 (antibody, V domains shown)
VH: EVQLVESGGGLVKPGGSLRLSCAASGLTFSTTWMSWVRQAPGKGLEWVGRIKSKGDGGTTDFAGPVKGRFSISRDDSKNTLYLHMNSLKTEDTAVYYCTTDDPGSYYYGMDVWGQGTTVTVSS
VL: QTVVTQEPSLTVSPGGTVTLTCASSTGAVTSGHYPYWFQQKPGQAPRTLIYATSNKHSWTPARFSGSLLGGKAALTLSGAQPEDEADYYCLLSYSGARVFGGGTKLTVL
B7: C535 (antibody, V domains shown)
VH: EVQLVESGGALVQPGRSLRLSCAASGFTFDDYAMHWVRQAPGKGLEWVSSISWNGVSIGYADSVRGRFTISRDNAKNSLYLQMNSLKIGDTAFYYCARGLDGSSSASPDSWGQGTLVTVSS
VL: B1 VL with D28G, S30G, D70Y, I72T, S77G, G84A
B8: C523 (antibody, V domains shown)
VH: QVQLQESGPGLVKPSETLSLTCTVSGASISSHYWSWIRQPPGKGLEWIGYIHYIGSTNYNPSLKSRVTILLDTSKNQFSLRLRSVTAADTAVYYCARGWPYCGVDCYSGFDYWGQGTLVTVSS
VL: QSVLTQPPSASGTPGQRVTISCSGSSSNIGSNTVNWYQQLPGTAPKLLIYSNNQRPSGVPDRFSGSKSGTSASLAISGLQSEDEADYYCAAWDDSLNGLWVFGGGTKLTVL
B9: C538 (antibody, V domains shown)
VH: QLQLQESGPGLVKPSETLSLTCTVSGGSISSSSYYWAWIRQPPGKGLEWIGNIYYSGITYYSPSLKSRVTISVDTSKNQFSLKLRSVTAADTAVYYCARQHRYGSGSSELLWGQGTLVTVSS
VL: QSALTQPPSASGSPGQSVTISCTGTSSDVGSYNYVSWYQQHPGKAPKLMIYEVTKRPSGVPDRFSGSKSGNTASLTVSGLQADDEADYYCSSYAGSSNLIFGGGTKLTVL
B10: C524 (antibody, V domains shown)
VH: EVQLVESGGDLIQPGGSLRLSCAASGFSVSNSYMSWVRQAPGKGLEWVSIIYSGGSTYYADSVKGRFTISRDNSKNTLYLQMNSLRAEDTAVYFCAKTPRGDYDSSGTSAYWGQGTLVTVSS
VL: QLVLTQSPSASASLGASVNLTCTLSSGHSSYAIAWHQQQPEKGPRFLMKLSSDGSHNKGDGIPDRFSGSSSGAERFLTISSLQSEDEADYYCQTWGIGSDWVFGGGTKLTVL
B11: C533 (antibody, V domains shown)
VH: EVQLVESGGSLVKPGGSLRLSCVASGLTFNHAWMSWVRQAPGKGLEWVGRIKSKIDGGTTDYAAPVKGRFTISRDDSKSTQYLQMNSLKTEDTAVYYCTTDCFWRLGGTTCYEHDAFDVWGQGTMVTVSS
VL: DIQMTQSPSSLSASVGDRVTITCRASQAIATFLNWYQQKPGKAPKLLIYAASSLQSGVPSRFSGSGSGTDFTLTISNLQPEDFATYYCQQSYNSLHFGGGTKVEIK
B12: C563 (antibody, V domains shown)
VH: EVQLVESGGGLVKPGGSLRLSCAASGFPFTNAWMSWVRQAPGKGLEWVGHIKDYTDGGTTDYAAPVKGKFTISRDDSKNTLYLHMNSLKTEDTAVYYCSTVGSYYYDSRGPTSDAFDIWGQGTLVTVSS
VL: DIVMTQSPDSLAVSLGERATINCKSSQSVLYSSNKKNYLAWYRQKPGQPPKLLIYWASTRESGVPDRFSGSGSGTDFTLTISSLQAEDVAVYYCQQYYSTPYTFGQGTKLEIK
B13: C537 (antibody, V domains shown)
VH: QLQLQESGPGLVKPSETLSLTCTVSGGAISSRNYHWGWIRQPPGKGLEWIGSIYYSGSTYYSPSLKSRVTISVDTSKNQFSLRLSSVTAADTAVYYCARLETSGWYTEDVFDIWGQGTMVTVSS
VL: DIQMTQSPSSLSASVGDRVTITCRASQSISSYLNWYQQKPGKAPKLLIYAASSLQSGVPSRFSGSGSGTDFTLTISSLLPEDFATYYCQRSYSAMYTFGQGTKLEIK
B14: C550 (antibody, V domains shown)
VH: EVQLVQSGAEVKKPGESLKISCKGSGYRFTNYWIGWVRQMPGKGLEWMGIIYPGDSDTRYSPSFQGQVTISADKSITTAYLQWSSLKASDTAMYYCARLSDRWYSPFDPWGQGTLVTVSS
VL: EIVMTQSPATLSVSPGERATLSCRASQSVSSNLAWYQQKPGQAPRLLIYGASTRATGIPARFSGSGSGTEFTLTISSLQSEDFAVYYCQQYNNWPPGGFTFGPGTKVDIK
B15: C532 (antibody, V domains shown)
VH: B14 VH with M48I, I50N, Y52F, T58S, A72V, K74M, Q82H, M93I, D101E, P109S
VL: EIVMTQSPATLSVSPGERATLSCRASQSVSSNLAWYQQKPGQAPRLLIYGASTRATGFPARFSGSGSGTEFTLTISSLQSEDFAVYFCQQYNNWPPGGFTFGPGTKVDIK
B16: C534 (antibody, V domains shown)
VH: QVQLVQSGAEVKKPGSSVRVSCKASGGTFSRNVISWVRQAPGQGLEWMGGIIPMFATANYAQKFQGRVTITADESSSTAYMELSSLRSEDTAVYYCAREDFILVSAPIRENSYYYYGMDVWGQGTTVTVSS
VL: EIVLTQSPGTLSLSPGERATLSCRASQSVSSNYLAWYQQKPGQAPRLLIYDASSRATGIPDRFSGSGSGTDFTLTISRLEPEDFAVYYCQQYGGSPRTFGQGTKVEIK
B17: C556 (antibody, V domains shown)
VH: QVQLVQSGAEVKKPGASVKVSCKASGYTFTYYYMHWVRQAPGQGLEWMGIINPSGGSTSYAQKFQGRVTMTRDTSTSTVYMELSSLRSEDTAVYYCARPLLPGETGSLNRLDYWGQGTLVTVSS
VL: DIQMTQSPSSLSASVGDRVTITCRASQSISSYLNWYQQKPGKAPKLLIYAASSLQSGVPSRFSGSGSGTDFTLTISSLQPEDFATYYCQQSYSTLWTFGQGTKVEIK

For one assay, the target named is SARS-CoV-2 spike receptor binding domain (RBD), wild type (SARS-CoV-2, UniProt P0DTC2 319-539). The experiment in a line: ELISA, RBD protein coated, mAb titrated. (In general: An ELISA detects its analyte on a solid surface through an enzyme-linked reagent.)
As a reminder, the EC50 is the concentration needed to bring the measured effect to its halfway point. The low end stands for a more potent agent, the high end for a less potent agent. Regarding B1, the concentration giving a half-maximal response (EC50) amounted to 10.6 ng/mL.

B2 came in with an EC50 of 5.66 ng/mL. The same measure, in the same setting: in the case of B3 it was 13.4 ng/mL. Molecule B4 displayed an EC50 of 18.2 ng/mL.

Another assay has the same target. The experiment in a line: ELISA, RBD protein coated, mAb titrated. This is another data set of the same source.
The molecule B5 showed a 50% effective concentration (EC50) of 1.88 ng/mL. In turn, B6 came in with an EC50 of 2.88 ng/mL. Turning to B7, a half-maximal effect (EC50) was put at 2.46 ng/mL.

With B8, the EC50 came to 9.08 ng/mL. B9: the EC50 is 3.94 ng/mL. Same read-out and setting: in the case of B10 it was 5 ng/mL; in that of B11, 1.61 ng/mL. On to B12, for which a half-maximal effect (EC50) was put at 1.19 ng/mL. The EC50 values of the last two molecules are within 1.5-fold of each other. Turning to B13, the concentration giving a half-maximal response (EC50) was found to be 41.9 ng/mL.

Molecule B14 displayed an EC50 of 2.56 ng/mL. B15 showed a concentration for a half-maximal effect (EC50) of 1 ng/mL. B16 came in with a concentration giving a half-maximal response (EC50) of 4.85 ng/mL. In turn, B17 gave an EC50 of 1.36 ng/mL.
